According to US20160054331A1:

Target: Hexa-His tag amidated peptide HHHHHH-CONH2
Experiment: peptides on microspheres, PE anti-mouse IgG, Luminex

anti-C-term His tag antibody 3D5 (Invitrogen, Carlsbad, Calif.)
binding remaining after amidation of the C terminus (percent): < 15%
